Reference: article PMC3621757, “Structural Plasticity in Human Heterochromatin Protein 1β” (PLoS ONE, 2013)

Molecular target: the molecule itself
Experiment: small angle X-ray scattering (SAXS); hHP1β (2–185) at 1.0, 2.0 and 5.0 mg/mL, 283 K; 20 mM sodium phosphate pH 6.5, 50 mM NaCl, 2 mM DTT; MW from forward scattering against bovine serum albumin

B1: full-length human Heterochromatin Protein 1β, hHP1β (2–185) (natural protein)
chain: not shown
notes: The His-tag is TEV-protease-cleavable; NMR samples were 15N-perdeuterated; also called full-length hHP1β; source: pET16b expression vector (Novagen); additional size-exclusion chromatography on Superdex200 for SAXS and DLS samples
  stoichiometry N: 2
